Experiment [1] concerns the target HER2 on tumor cell lines (SKBR-3, NCI-N87, MCF-7; 293F as HER2-negative control) (human, UniProt P04626 23-1255). Put plainly: cell-based or functional assay.
Another experiment has as its target T1, human CD3 antigen (human, UniProt P07766 23-126).
T1 construct: also called antigen CD3
Put plainly: ELISA, CD3 antigen coated on plate, anti-human IgG-peroxidase detection. On the technique in general: An ELISA detects its analyte on a solid surface through an enzyme-linked reagent.

Bounds are passed on as bounds.

In general, EC50 refers to the midpoint of the concentration-response curve. A high value points to lower potency in that assay.

T1 sequence (P07766 23-126): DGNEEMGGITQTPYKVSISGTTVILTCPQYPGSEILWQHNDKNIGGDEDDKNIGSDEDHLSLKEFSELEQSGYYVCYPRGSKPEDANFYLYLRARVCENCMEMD

B1: HER2-OB1×GXP2 bispecific antibody (bispecific antibody, human IgG1, kappa, L234A L235A)
heavy 1: not shown
heavy 2: EVQLVESGGGLVQPGGSLKLSCAASGFTFNTYAMNWVRQAPGKGLEWVARIRSKYNNYATYYADSVKDRFTISRDDSKNTAYLQMNNLKTEDTAMYYCVRHGNFGNSYVSWFAYWGQGTLVTVSSASTKGPSVFPLAPSSKSTSGGTAALGCLVKDYFPEPVTVSWNSGALTSGVHTFPAVLQSSGLYSLSSVVTVPSSSLGTQTYICNVNHKPSNTKVDKKVEPKSCDKTHTCPPCPAPEAAGGPSVFLFPPKPKDTLMISRTPEVTCVVVDVSHEDPEVKFNWYVDGVEVHNAKTKPREEQYNSTYRVVSVLTVLHQDWLNGKEYKCKVSNKALPAPIEKTISKAKGQPREPQVYTLPPSRDELTKNQVSLTCLVKGFYPSDIAVEWESNGQPENNYKTTKKKLDSDGSFFLYSKLTVDKSRWQQGNVFSCSVMHEALHNHYTQKSLSLSPGK
light: DIQMTQEPSLTTSPGGTVTLTCRSSTGAVTTSNYANWVQEKPGQAPRGLIGGTNKRAPGTPARFSGSLIGGKAALTITGVQPEDEAIYFCALWYSNLWVFGGGTKLEIKRTVAAPSVFIFPPSDEQLKSGTASVVCLLNNFYPREAKVQWKVDNALQSGNSQESVTEQDSKDSTYSLSSTLTLSKADYEKHKVYACEVTHQGLSSPVTKSFNRGEC
notes: also called HER2×GXP2; Her2×GXP2
Turning to B1, in experiment [1], the “EC50 of PBMC-mediated killing of NCI-N87 cells (LDH release)” value was found to be 0.000395 µg/mL and the “EC50 of PBMC-mediated killing of SKBR-3 cells (LDH release), fold lower than Herceptin” value was > 100 times lower than Herceptin. The molecule also displayed an EC50 with human CD3 antigen of 1.4 µg/mL.

B2: HER2-OB1×GXP bispecific antibody (bispecific antibody)
chain 1: not shown
chain 2: EVKLLESGGGLVQPKGSLKLSCAASGFTFNTYAMNWVRQAPGKGLEWVARIRSKYNNYATYYADSVKDRFTISRDDSQSILYLQMNNLKTEDTAMYYCVRHGNFGNSYVSWFAYWGQGTLVTVSSASTKGPSVFPLAPSSKSTSGGTAALGCLVKDYFPEPVTVSWNSGALTSGVHTFPAVLQSSGLYSLSSVVTVPSSSLGTQTYICNVNHKPSNTKVDKKVEPKSCDKTHTCPPCPAPEAAGGPSVFLFPPKPKDTLMISRTPEVTCVVVDVSHEDPEVKFNWYVDGVEVHNAKTKPREEQYNSTYRVVSVLTVLHQDWLNGKEYKCKVSNKALPAPIEKTISKAKGQPREPQVYTLPPSRDELTKNQVSLTCLVKGFYPSDIAVEWESNGQPENNYKTTKKKLDSDGSFFLYSKLTVDKSRWQQGNVFSCSVMHEALHNHYTQKSLSLSPGK
chain 3: QAVVTQESALTTSPGETVTLTCRSSTGAVTTSNYANWVQEKPDHLFTGLIGGTNKRAPGVPARFSGSLIGDKAALTITGAQTEDEAIYFCALWYSNLWVFGGGTKLVTMEIKRTVAAPSVFIFPPSDEQLKSGTASVVCLLNNFYPREAKVQWKVDNALQSGNSQESVTEQDSKDSTYSLSSTLTLSKADYEKHKVYTCEVTHQGLSSPVTKSFNRGEC
Take B2: in the experiment with human CD3 antigen, the midpoint of the response, the EC50, lay at 3.15 µg/mL.

The values above are taken from patent US20210122823A1 (EXCELMAB, published 2021).
